This is an account of results in paper PMC10436073, “Saccharomyces cerevisiae NRE1 and IRC24 Encode Paralogous Benzil Oxidoreductases” (microPublication Biology, 2023).

Substrate in this data set: O=C(C(=O)c1ccccc1)c1ccccc1
Briefly: purified protein. In kind it is biochemical, Saccharomyces cerevisiae. The conditions noted are these: NADPH 0.075 mM (preferred cofactor; NADH also measured), 10 mM Tris-HCl pH 8.0, 30 C, apparent Km.

B1: Nre1p (Saccharomyces cerevisiae S288C) (protein)
chain: MGKVILVTGVSRGIGKSIVDVLFSLDKDTVVYGVARSEAPLKKLKEKYGDRFFYVVGDITEDSVLKQLVNAAVKGHGKIDSLVANAGVLEPVQNVNEIDVNAWKKLYDINFFSIVSLVGIALPELKKTNGNVVFVSSDACNMYFSSWGAYGSSKAALNHFAMTLANEERQVKAIAVAPGIVDTDMQVNIRENVGPSSMSAEQLKMFRGLKENNQLLDSSVPATVYAKLALHGIPDGVNGQYLSYNDPALADFMP
The term Km denotes the concentration of substrate that gives half-maximal velocity. As for B1, the Km came to 390 µM.

B2: Irc24p (Saccharomyces cerevisiae S288C) (protein)
chain: MGKVILITGASRGIGLQLVKTVIEEDDECIVYGVARTEAGLQSLQREYGADKFVYRVLDITDRSRMEALVEEIRQKHGKLDGIVANAGMLEPVKSISQSNSEHDIKQWERLFDVNFFSIVSLVALCLPLLKSSPFVGNIVFVSSGASVKPYNGWSAYGCSKAALNHFAMDIASEEPSDKVRAVCIAPGVVDTQMQKDIRETLGPQGMTPKALERFTQLYKTSSLLDPKVPAAVLAQLVLKGIPDSLNGQYLRYNDERLGPVQG
As for B2, the Km stood at 420 µM.
